The supplement of paper PMC10065799, “High-throughput profiling of sequence recognition by tyrosine kinases and SH2 domains using bacterial peptide display” (eLife, 2023)

What was measured:
[1] = tested on: c-Src; assay: phosphorylation enrichment, bacterial display (enrichment ratio); higher = better substrate or ligand; peptides without Tyr show the background
[2] = biological target: Hck (UniProt P08631); assay: as above
[3] = biological target: EPHB1 (UniProt P54762); assay: as above
[4] = biological target: EPHB2 (UniProt P29323); assay: as above
[5] = tested on: c-Abl (mouse); assay: as above
[6] = biological target: Fes (UniProt P07332); assay: as above
[7] = biological target: FGFR1 (UniProt P11362); assay: as above
[8] = biological target: Fyn (UniProt P06241); assay: as above
[9] = tested on: Fer (mouse); assay: as above
[10] = biological target: Jak2 (UniProt O60674); assay: as above
[11] = tested on: AncSZ; assay: as above
[12] = biological target: MERTK (UniProt Q12866); assay: as above
[13] = biological target: FGFR3 (UniProt P22607); assay: as above
[14] = biological target: Grb2 SH2 (UniProt P62993); assay: SH2 binding enrichment of the phosphorylated peptide, bacterial display (enrichment ratio); higher = better substrate or ligand; peptides without Tyr show the background
[15] = biological target: SHP2-C SH2; assay: as above
[16] = biological target: c-Src SH2; assay: as above
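Throughout, for SH2 binding enrichment of the phosphorylated peptide, bacterial display: peptide library displayed on the E. coli surface as eCPX fusions, selected cells deep-sequenced, score is each peptide's frequency after selection divided by its frequency in the input.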
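Throughout, for phosphorylation enrichment, bacterial display: 11-residue human phosphosite peptides and single-mutation variants displayed on the E. coli surface, counted by deep sequencing, each peptide's frequency after selection divided by its frequency in the unselected input library; frequency after pTyr selection over input frequency; kinase dosed for 20-30% of maximal phosphorylation in three min.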

FGFR3, sequence (P22607 whole entry, looked up): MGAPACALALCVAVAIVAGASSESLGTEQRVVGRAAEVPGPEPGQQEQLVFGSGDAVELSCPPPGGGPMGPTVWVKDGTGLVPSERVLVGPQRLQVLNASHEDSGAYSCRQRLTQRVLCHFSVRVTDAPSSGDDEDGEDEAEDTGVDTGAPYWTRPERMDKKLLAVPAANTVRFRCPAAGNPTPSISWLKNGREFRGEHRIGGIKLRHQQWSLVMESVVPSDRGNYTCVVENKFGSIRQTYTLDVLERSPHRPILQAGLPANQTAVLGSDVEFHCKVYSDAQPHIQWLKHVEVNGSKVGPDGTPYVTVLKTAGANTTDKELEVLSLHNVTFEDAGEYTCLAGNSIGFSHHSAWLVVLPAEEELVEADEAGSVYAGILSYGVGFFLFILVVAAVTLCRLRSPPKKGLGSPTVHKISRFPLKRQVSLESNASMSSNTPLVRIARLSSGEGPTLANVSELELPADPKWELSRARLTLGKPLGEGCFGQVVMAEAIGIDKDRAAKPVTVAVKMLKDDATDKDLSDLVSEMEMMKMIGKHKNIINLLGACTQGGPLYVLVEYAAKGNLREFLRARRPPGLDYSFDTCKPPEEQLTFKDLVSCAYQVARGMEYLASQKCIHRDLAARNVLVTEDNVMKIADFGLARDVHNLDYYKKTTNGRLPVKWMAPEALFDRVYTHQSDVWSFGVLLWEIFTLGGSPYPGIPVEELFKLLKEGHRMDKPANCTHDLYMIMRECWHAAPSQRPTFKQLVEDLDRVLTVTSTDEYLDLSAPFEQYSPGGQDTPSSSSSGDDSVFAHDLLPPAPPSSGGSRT
Fyn, sequence (P06241 whole entry, looked up): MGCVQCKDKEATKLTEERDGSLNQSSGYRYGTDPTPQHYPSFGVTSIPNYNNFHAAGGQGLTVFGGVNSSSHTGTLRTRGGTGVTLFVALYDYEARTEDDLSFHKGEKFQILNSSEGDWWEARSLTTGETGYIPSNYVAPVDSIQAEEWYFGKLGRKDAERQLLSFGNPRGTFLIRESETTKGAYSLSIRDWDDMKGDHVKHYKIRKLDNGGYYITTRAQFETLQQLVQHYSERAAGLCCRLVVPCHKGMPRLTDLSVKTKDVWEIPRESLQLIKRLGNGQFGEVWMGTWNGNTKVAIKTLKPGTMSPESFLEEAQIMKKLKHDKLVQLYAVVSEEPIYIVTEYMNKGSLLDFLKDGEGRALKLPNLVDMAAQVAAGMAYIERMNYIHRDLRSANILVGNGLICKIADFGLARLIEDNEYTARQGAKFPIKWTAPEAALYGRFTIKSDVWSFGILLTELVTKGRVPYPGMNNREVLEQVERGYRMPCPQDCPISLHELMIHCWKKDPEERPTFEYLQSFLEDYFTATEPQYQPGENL
MERTK, sequence (Q12866 whole entry, looked up): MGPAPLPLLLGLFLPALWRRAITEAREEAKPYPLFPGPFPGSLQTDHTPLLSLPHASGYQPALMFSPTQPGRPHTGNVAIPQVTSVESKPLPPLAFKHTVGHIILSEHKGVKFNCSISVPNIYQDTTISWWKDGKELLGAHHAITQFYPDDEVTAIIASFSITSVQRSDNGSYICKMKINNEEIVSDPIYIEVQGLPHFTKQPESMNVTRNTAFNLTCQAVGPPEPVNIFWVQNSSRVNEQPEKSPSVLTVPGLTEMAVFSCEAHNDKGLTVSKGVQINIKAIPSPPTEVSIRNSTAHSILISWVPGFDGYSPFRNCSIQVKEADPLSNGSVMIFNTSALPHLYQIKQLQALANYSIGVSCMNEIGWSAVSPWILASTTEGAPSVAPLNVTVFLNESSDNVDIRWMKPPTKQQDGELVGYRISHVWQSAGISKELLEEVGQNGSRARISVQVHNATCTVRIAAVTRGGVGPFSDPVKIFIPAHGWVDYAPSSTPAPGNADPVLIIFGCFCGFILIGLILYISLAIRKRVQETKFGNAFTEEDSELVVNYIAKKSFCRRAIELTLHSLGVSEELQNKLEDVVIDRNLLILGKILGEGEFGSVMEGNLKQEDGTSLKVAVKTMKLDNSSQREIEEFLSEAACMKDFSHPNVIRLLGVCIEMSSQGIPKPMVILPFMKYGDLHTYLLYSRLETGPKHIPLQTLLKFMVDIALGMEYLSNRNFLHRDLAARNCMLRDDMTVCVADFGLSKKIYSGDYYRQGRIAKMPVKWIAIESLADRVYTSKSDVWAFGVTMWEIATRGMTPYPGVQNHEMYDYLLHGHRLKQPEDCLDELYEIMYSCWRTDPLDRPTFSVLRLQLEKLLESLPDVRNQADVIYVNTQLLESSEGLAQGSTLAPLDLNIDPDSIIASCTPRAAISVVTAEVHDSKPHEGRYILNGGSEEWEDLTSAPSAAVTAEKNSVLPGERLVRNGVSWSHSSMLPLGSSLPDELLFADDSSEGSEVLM
FGFR1, sequence (P11362 whole entry, looked up): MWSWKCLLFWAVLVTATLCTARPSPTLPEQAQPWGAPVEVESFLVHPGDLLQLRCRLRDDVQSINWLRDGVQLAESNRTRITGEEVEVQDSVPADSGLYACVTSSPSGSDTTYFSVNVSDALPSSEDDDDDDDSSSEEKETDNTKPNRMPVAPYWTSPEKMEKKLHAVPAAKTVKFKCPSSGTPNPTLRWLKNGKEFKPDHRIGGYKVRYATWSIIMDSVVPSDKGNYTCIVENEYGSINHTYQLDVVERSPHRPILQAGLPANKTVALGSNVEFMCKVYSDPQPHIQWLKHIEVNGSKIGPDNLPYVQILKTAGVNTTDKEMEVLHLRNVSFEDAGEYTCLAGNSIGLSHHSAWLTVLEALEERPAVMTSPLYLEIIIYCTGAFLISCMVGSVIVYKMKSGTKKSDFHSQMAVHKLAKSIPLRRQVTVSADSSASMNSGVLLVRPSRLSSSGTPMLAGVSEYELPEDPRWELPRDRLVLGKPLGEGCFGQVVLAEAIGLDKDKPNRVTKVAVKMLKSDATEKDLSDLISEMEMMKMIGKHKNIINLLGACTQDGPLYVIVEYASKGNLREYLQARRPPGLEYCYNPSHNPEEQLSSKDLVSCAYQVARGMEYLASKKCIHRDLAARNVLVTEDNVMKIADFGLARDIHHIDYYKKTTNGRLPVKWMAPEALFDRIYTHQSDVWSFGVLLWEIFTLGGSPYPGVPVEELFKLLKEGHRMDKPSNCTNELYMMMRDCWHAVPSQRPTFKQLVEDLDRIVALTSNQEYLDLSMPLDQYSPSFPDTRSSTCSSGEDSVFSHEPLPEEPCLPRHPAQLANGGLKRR
EPHB2, sequence (P29323 whole entry, looked up): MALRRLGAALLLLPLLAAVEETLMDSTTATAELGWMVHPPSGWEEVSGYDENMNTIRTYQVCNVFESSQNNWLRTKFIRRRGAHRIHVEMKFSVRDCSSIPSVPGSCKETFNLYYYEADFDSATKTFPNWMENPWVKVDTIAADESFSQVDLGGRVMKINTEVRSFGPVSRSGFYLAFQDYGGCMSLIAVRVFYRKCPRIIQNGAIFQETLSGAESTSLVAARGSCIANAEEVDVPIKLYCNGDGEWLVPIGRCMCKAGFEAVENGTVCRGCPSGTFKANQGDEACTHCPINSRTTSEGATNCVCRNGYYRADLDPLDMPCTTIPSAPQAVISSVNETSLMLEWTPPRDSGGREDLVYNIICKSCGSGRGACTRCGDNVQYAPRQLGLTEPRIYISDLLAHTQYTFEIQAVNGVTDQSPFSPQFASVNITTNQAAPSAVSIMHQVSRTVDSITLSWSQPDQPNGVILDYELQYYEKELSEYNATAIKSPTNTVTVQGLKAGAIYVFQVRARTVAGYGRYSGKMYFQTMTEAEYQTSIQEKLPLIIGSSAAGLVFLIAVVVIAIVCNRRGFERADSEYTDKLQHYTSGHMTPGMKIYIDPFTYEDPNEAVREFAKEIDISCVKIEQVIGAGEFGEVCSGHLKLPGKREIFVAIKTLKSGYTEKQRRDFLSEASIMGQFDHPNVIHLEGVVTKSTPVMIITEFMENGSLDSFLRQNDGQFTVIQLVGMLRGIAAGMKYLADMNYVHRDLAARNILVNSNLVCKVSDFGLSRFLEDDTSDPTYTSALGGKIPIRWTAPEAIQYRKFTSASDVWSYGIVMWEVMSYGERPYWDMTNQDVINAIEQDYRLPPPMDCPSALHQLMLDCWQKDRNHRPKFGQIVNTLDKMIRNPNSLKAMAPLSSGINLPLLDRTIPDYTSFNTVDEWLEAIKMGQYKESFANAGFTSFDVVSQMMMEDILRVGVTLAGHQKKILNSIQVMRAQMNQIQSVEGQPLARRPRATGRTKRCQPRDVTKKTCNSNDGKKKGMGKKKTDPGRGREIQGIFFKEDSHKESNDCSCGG
Fes, sequence (P07332 whole entry, looked up): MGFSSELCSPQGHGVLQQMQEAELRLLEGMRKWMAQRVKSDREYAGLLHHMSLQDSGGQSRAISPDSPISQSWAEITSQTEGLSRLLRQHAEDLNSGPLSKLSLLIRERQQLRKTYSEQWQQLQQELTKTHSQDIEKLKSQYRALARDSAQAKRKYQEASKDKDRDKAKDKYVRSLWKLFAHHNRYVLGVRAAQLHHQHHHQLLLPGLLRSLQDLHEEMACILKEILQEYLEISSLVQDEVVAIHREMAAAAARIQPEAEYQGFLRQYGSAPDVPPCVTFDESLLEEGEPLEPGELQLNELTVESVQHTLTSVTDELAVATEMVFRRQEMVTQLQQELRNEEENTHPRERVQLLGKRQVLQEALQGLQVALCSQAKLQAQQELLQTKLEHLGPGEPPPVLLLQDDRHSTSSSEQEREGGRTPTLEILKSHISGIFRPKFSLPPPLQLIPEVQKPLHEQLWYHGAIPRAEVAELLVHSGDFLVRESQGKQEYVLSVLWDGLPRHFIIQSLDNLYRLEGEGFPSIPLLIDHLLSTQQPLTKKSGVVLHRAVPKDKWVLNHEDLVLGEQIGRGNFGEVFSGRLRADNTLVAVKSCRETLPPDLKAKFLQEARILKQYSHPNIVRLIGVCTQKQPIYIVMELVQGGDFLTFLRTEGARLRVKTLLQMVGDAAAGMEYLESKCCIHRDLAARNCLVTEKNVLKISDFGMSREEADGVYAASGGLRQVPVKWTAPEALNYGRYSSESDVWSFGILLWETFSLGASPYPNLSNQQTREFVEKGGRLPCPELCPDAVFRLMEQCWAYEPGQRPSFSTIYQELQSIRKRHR

Row | SH2 binding enrichment [14] | SH2 binding enrichment [15] | SH2 binding enrichment [16] | Sequence | phosphorylation enrichment [1] | phosphorylation enrichment [2] | phosphorylation enrichment [3] | phosphorylation enrichment [4] | phosphorylation enrichment [5] | phosphorylation enrichment [6] | phosphorylation enrichment [7] | phosphorylation enrichment [8] | phosphorylation enrichment [9] | phosphorylation enrichment [10] | phosphorylation enrichment [11] | phosphorylation enrichment [12] | phosphorylation enrichment [13]
1 | 0.655 | 12.8 | 1.24 | NGTVTYAIVAG [CDH23_Y1672] | 1.08 | 1.09 | 3.07 | 2.01 | 0.688 | 0.992 | 0.545 | 0.904 | 0.471 | 0.799 | 0.99 | 2.6 | 0.714
2 | 0.95 | 0.579 | 0.494 | VRRVGYVSGWG [HP_Y280_G276R] | 0.434 | 0.438 | 0.422 | 0.423 | 0.642 | 0.61 | 0.373 | 0.388 | 0.469 | 0.514 | 0.613 | 0.387 | 0.391
3 | 0.973 | 0.566 | 9.33 | WNEVGYDDIGG [VCP_Y203_L198W] | 0.502 | 0.538 | 0.608 | 0.515 | 0.737 | 1.27 | 0.557 | 0.422 | 0.53 | 1.14 | 1.07 | 0.406 | 0.724
4 | 1.38 | 2.98 | 1 | MSSLPYMKVIF [SLC4A11_Y853_M856V] | 0.516 | 0.622 | 0.482 | 0.541 | 0.461 | 0.84 | 0.764 | 0.507 | 1.01 | 1.02 | 0.822 | 0.507 | 0.592
5 | 0.789 | 0.844 | 0.503 | TSNNPYFRDQA [RPGRIP1_Y846_A841T] | 0.721 | 0.454 | 0.395 | 0.374 | 0.628 | 0.796 | 0.451 | 0.51 | 0.396 | 0.901 | 0.665 | 0.473 | 0.544
6 | 0.834 | 0.764 | 0.986 | STDDGYIDLQF [TMEM230_Y29] | 0.488 | 0.521 | 0.701 | 0.472 | 0.695 | 1.09 | 1.01 | 0.564 | 0.584 | 1.19 | 1.22 | 0.513 | 1.01
7 | 0.947 | 0.688 | 1.45 | KSPDSYQKILP [ATM_Y1415_L1420P] | 0.389 | 0.36 | 0.387 | 0.321 | 0.431 | 0.584 | 0.517 | 0.427 | 0.531 | 0.519 | 0.544 | 0.414 | 0.429
8 | 0.785 | 0.656 | 0.541 | GSLEDYVRETN [GIMAP6_Y176] | 0.424 | 0.54 | 0.438 | 0.573 | 0.619 | 0.869 | 0.501 | 0.468 | 0.398 | 0.724 | 1 | 0.442 | 0.661
9 | 0.747 | 0.792 | 1.97 | MKTISYETLIA [DOCK10_Y1350] | 0.379 | 0.501 | 0.53 | 0.474 | 0.526 | 0.926 | 0.472 | 0.431 | 0.497 | 0.927 | 0.847 | 0.384 | 0.622
10 | 0.861 | 0.611 | 0.855 | TQNGVYSAANF [DDX5_Y535_YF] | 5.43 | 8.3 | 1.4 | 1.94 | 2 | 0.541 | 0.489 | 7.62 | 4.42 | 0.444 | 0.56 | 6.66 | 0.443
11 | 0.918 | 0.759 | 0.503 | LIDGFYRLTAD [JAK2_Y373_YF] | 0.86 | 0.807 | 0.747 | 0.883 | 0.816 | 1.51 | 0.754 | 0.698 | 0.523 | 1.29 | 1.29 | 0.741 | 0.991
12 | 0.69 | 0.501 | 0.411 | ELTSVYGSRAR [SENP1_Y349_D350G] | 1.96 | 1.86 | 0.378 | 0.42 | 0.567 | 0.633 | 0.41 | 1.97 | 0.424 | 0.538 | 0.523 | 0.449 | 0.583
13 | 1.08 | 0.983 | 0.487 | TKEPKYGGAGS [KIAA1210_Y1615_E1616G] | 0.409 | 0.361 | 0.431 | 0.44 | 0.462 | 0.55 | 0.405 | 0.459 | 0.457 | 0.416 | 0.5 | 0.384 | 0.548
14 | 0.963 | 1 | 0.418 | FAKTQYPDVYA [CRX_Y63] | 0.486 | 0.653 | 0.474 | 0.526 | 0.652 | 0.692 | 0.533 | 0.469 | 0.4 | 0.52 | 0.628 | 0.346 | 0.478
15 | 0.852 | 0.594 | 0.365 | PLDGEYFTLHI [TP53_Y327_Q331H] | 2.97 | 1.51 | 0.808 | 0.97 | 1.93 | 1.68 | 5.77 | 2.35 | 0.816 | 4.23 | 2.49 | 0.752 | 4.7
16 | 0.827 | 0.83 | 1.53 | QGQHWYSSSDT [CASP10_Y9_K14T] | 0.982 | 0.573 | 0.859 | 0.929 | 1.06 | 1.39 | 0.657 | 0.672 | 0.755 | 1.99 | 1.09 | 0.811 | 0.901

Row | SH2 binding enrichment [14] | SH2 binding enrichment [15] | SH2 binding enrichment [16] | Sequence | phosphorylation enrichment [1] | phosphorylation enrichment [2] | phosphorylation enrichment [3] | phosphorylation enrichment [4] | phosphorylation enrichment [5] | phosphorylation enrichment [6] | phosphorylation enrichment [7] | phosphorylation enrichment [8] | phosphorylation enrichment [9] | phosphorylation enrichment [10] | phosphorylation enrichment [11] | phosphorylation enrichment [12] | phosphorylation enrichment [13]
17 | 1.64 | 1.54 | 1.6 | RDLTHYLMKIL [ACTG1_Y188_D187H] | 0.463 | 1.06 | 1.05 | 0.804 | 0.692 | 1.12 | 0.665 | 0.756 | 0.64 | 0.477 | 1.27 | 0.583 | 0.85
18 | 0.765 | 0.883 | 0.77 | YRIGPYQPNVP [MATR3_Y784] | 0.402 | 0.486 | 0.565 | 0.504 | 0.501 | 0.736 | 0.769 | 0.505 | 0.5 | 0.44 | 0.685 | 0.358 | 0.712
19 | 0.72 | 0.432 | 0.367 | RYVTRYIYNRE [HLA-DQB1_Y62] | 1.09 | 0.739 | 0.74 | 0.783 | 0.832 | 1.18 | 0.681 | 0.701 | 0.527 | 1.26 | 1.23 | 0.773 | 0.793
20 | 4.93 | 0.979 | 6.19 | ERPGVYTNVVE [F11_Y608] | 0.442 | 0.463 | 0.417 | 0.423 | 0.513 | 0.62 | 0.438 | 0.481 | 0.413 | 0.519 | 0.66 | 0.383 | 0.538
21 | 0.747 | 0.401 | 0.394 | HKETGYVVERP [BCLAF1_Y466_L461H] | 0.652 | 0.448 | 0.475 | 0.502 | 1.28 | 1.36 | 0.582 | 0.497 | 0.439 | 1.14 | 0.746 | 0.445 | 0.656
22 | 0.958 | 0.809 | 0.68 | GAVDTYCRHNF [HLA-DRB1_Y107_A102G_YF] | 0.49 | 0.509 | 0.695 | 0.524 | 0.583 | 0.742 | 0.427 | 0.479 | 0.591 | 0.648 | 0.649 | 0.474 | 0.528
23 | 0.704 | 0.561 | 0.678 | GADAIYDHINE [UQCR10_Y44] | 4.96 | 6.65 | 0.91 | 1.03 | 0.689 | 0.953 | 0.5 | 5.57 | 2.82 | 0.777 | 1.03 | 3.14 | 0.563
24 | 0.855 | 0.803 | 0.497 | TGILLYGLASR [QARS1_Y57] | 0.765 | 1.22 | 0.964 | 1.38 | 0.756 | 1.16 | 0.529 | 0.578 | 1.46 | 0.937 | 0.885 | 1.79 | 0.692
25 | 0.995 | 0.857 | 1.86 | CTTIHYNYMHN [TP53_Y234_C238H] | 0.349 | 0.407 | 0.528 | 0.536 | 0.446 | 0.767 | 0.479 | 0.447 | 0.488 | 0.531 | 0.692 | 0.433 | 0.521
26 | 0.747 | 0.493 | 0.358 | HRTLVYGGIFL [FBP1_Y259] | 3.83 | 3.69 | 0.677 | 0.84 | 1.06 | 1.38 | 0.704 | 5.36 | 1.01 | 1.07 | 1.19 | 0.532 | 1.01
27 | 0.802 | 0.454 | 0.495 | GFEVVYVTEPI [HSP90AB1_Y512_M513V] | 0.591 | 0.549 | 0.344 | 0.465 | 0.641 | 0.959 | 0.443 | 0.424 | 0.444 | 0.983 | 1.1 | 0.386 | 0.605
28 | 0.931 | 0.848 | 2.42 | NTTIHYNYMCN [TP53_Y234_C229N] | 0.496 | 0.579 | 0.747 | 0.692 | 0.707 | 1.06 | 0.767 | 0.55 | 0.566 | 0.817 | 1.08 | 0.574 | 0.803
29 | 1.71 | 1.6 | 1.22 | KMKGDYFRFLA [YWHAG_Y130_YF] | 2.11 | 0.543 | 0.804 | 0.509 | 0.806 | 0.689 | 5.05 | 1.01 | 0.282 | 4.54 | 0.722 | 0.632 | 3.83
30 | 1.23 | 0.875 | 0.758 | RSSKTYLKTRS [LPL_Y329_M328T] | 0.856 | 0.706 | 0.609 | 0.561 | 0.853 | 0.967 | 0.499 | 0.593 | 0.708 | 0.596 | 0.739 | 0.985 | 0.583
31 | 0.849 | 0.757 | 1.68 | SVVVHYEPPEV [TP53_Y220_P219H] | 0.485 | 0.537 | 0.699 | 0.616 | 1.72 | 1.02 | 0.525 | 0.484 | 1.86 | 0.758 | 1.15 | 0.71 | 0.647
32 | 1.03 | 0.658 | 1.04 | KPYRVYCDMNT [FGB_Y269] | 0.562 | 0.691 | 1.53 | 0.783 | 0.779 | 1.13 | 0.51 | 0.6 | 0.68 | 1.1 | 1.04 | 0.492 | 0.789

Row | Sequence | SH2 binding enrichment [14] | SH2 binding enrichment [15] | SH2 binding enrichment [16] | phosphorylation enrichment [1] | phosphorylation enrichment [2] | phosphorylation enrichment [3] | phosphorylation enrichment [4] | phosphorylation enrichment [5] | phosphorylation enrichment [6] | phosphorylation enrichment [7] | phosphorylation enrichment [8] | phosphorylation enrichment [9] | phosphorylation enrichment [10] | phosphorylation enrichment [11] | phosphorylation enrichment [12] | phosphorylation enrichment [13]
33 | SIKDKYVTVLY [KCNH2_Y611_A614V] | 0.99 | 2.27 | 1.06 | 0.403 | 0.455 | 0.519 | 0.506 | 0.594 | 0.903 | 0.68 | 0.598 | 0.512 | 0.696 | 0.836 | 0.437 | 0.733
